Experimental data as given in publication PMC3166620.
pKd: −log10 of the molar value.

What was measured:
Biotinylated CHIP = Biotinylated CHIP (UniProt Q9UNE7); assay: BLI
[1] = target: Biotinylated Ub-CHIP (monoubiquitinated CHIP) (UniProt P0CG48); assay: BLI

UniProt Q9UNE7, sequence (Q9UNE7 whole entry): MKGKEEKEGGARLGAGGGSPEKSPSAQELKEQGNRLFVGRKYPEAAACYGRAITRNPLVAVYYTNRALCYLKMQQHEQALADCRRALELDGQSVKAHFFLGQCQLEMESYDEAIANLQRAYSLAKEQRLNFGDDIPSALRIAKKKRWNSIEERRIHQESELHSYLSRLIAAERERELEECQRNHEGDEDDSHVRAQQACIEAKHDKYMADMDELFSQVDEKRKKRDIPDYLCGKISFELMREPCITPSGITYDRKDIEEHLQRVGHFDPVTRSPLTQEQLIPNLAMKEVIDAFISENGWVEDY

Row | Substance | pKd (Biotinylated CHIP) | pKd [1]
1 | ataxin-3, polyglutamine-expanded (Q80), recombinant (from UniProt P54252 1-361) (enzyme) | 6.41 | 6.12
2 | ataxin-3, normal (Q22), recombinant (from UniProt P54252 1-361) (enzyme) | 5.66 | 6.92
